Consider 2 molecules from article PMC8231982 (Molecules, 2021).

What all share (details): both partners purified
The target in test [1] is T1, HA H3 top domain ( (Figure 2 shows HA of …, UniProt P03437)).
T1 construct: source: HEK293T, pTT5 vector, purified via His-tag on Ni-NTA
The test is described as follows: SPR. On the technique in general: SPR reads the build-up and loss of mass on a sensor chip optically.

For test [2], the target named is T1, HA H3 top domain. Description: ELISA. Background: An ELISA detects its analyte on a solid surface through an enzyme-linked reagent.
For test [3], the target named is T2, wild-type cyanovirin-N (WT CV–N) ( (cyanobacterial lectin), UniProt P81180 1-101).
T2 construct: also called WT CV–N monomer; monomeric CV–N
T2 sequence: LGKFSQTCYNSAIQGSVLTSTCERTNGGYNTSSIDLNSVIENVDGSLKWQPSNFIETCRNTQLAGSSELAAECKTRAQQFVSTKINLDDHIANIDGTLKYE
Description: SPR.

B1: HC19 Fab, anti-influenza HA (Fab, V domains shown)
VH: QVQLKESGPGLVAPSQSLSITCTVSGFLLISNGVHWVRQPPGKGLEWLGVIWAGGNTNYNSALMSRVSISKDNSKSQVFLKMKSLQTDDTAMYYCARDFYDYDVFYYAMDYWGQGTSVTVSS
VL: QAVVTQESALTTSPGETVTLTCRSSTGAVTTSNYANWVQEKPDHLFTGLIGGTNNRAPGVPARFSGSLIGDKAALTITGAQTEDEAIYFCALWYSNHWVFGGGTKLTVL
notes: also called anti-HA HC19; HC19 anti-influenza Fab; source: HEK293-6E, transient transfection, purified from supernatant (protein A, SEC)
In the test with HA H3 top domain [1], B1 had a Kd of 64 nM, a koff of 0.0231 s⁻¹ and a kon of 360000 M⁻¹ s⁻¹. In the test with HA H3 top domain [2], this molecule had a Kd of 12.5 nM.

B2: HIV-1 gp140 trimer, Clade A 92 UG 037.8 (domain or fragment)
chain: not shown
In test [3], B2 registered a Kd of 120 nM.

The term Kd denotes the free concentration of one partner at which half of the binding sites on the other are occupied at equilibrium, for simple one-to-one binding. Read a low Kd as higher affinity. As a reminder, the koff is the rate constant with which the complex falls apart. Lower therefore signals a long-lived complex. One may read the kon as the rate constant with which the complex forms. A lower kon goes with slower complex formation.
